Assay: yeast display, Sf9 membrane polyspecificity reagent, FACS + sequencing; frameworks hold sequencing errors
Method in brief: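 Nanobodies came from a synthetic yeast display library in Saccharomyces cerevisiae BJ5465, induced with galactose for 36–48 hours and stained for 1 hour at 4 °C with 10% biotinylated, detergent-solubilized Sf9 membrane reagent. Cells were enriched on streptavidin microbeads and then FACS-sorted, with low and high (top ~1%) gates set on anti-HA fluorescence for expression and streptavidin fluorescence for reagent binding. Each polyreactivity label reflects the gate a clone came from. Genes were amplified by colony PCR, sequenced by MiSeq 2 × 250 and filtered by CDR length.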
In the case of “QVHLVESGGGLVQAGGSLRLSCAASGRIFSWYTMGWYRQAPGKERELVAVITSGGTTKYADSVKGRFTISRDNAKNTVYLQMNSLKPEDTAVYYCNVAGRDYAVRWGSFDYWGQGTQVTVSS”, the “polyreactivity (PSR sort gate)” value is reported as “low polyreactivity”.
With “QVQLVESGGGLVQAGGSLRLSCAASGSIQVYYAMGWYRQAPGKERELVAAISSGGSTNYADSVKGRFTISRDNAKNTVYLQMNSLKPEDTAVYYCAKESGWVGAIHYDYWGQGTQVTVSS” the “polyreactivity (PSR sort gate)” value was “low polyreactivity”.
For “QVQLVESGGGLVQAGGSLRLSCADSGSIFDFNALGWYRQAPRKERELVAAITWSGGSTYYSDSVKGRFTISRDYAKNTVYLQMNSLKPEDTAVYYCAADSLYDDFYYWGQGTQVTVSS”, the “polyreactivity (PSR sort gate)” value was “low polyreactivity”.
For “QVQLVESGGGLVQAGGSLRLSCAASGITSPAYAMGWYRQAPGKEREFVAAISSSGVSTYYADSVKGRFTISRDNAKNTVYLQMNRLKPEDTAVYYCNTVSWPLSSKYYYWGQGTQVTVSS”, the “polyreactivity (PSR sort gate)” value was “high polyreactivity”.
With “QFQLVESGGGLVQAGGSLRLSCAASGRIFYYNAMGWDRQAPGKERELVASISTGGGSTYYADSVKGRFTISRDNAKNTVYLQMNSLKTEDTAVYYCAARALTRSVPYGFYYWGQGTQVTVSS” the “polyreactivity (PSR sort gate)” value was “high polyreactivity”.
In the case of “QVQLVESGGGLVQAGGSLSLSCAASGSIFVIYTMGWYRPAPGKERELVAGITWSTGNTYYADSVKGRFTISRDNAKNTFYLQMNSLKPEDTAVYSCAARTTSRWRSGAYYYWGQGTQVTVSS”, the “polyreactivity (PSR sort gate)” value is reported as “high polyreactivity”.
For “QVQLVESGGGLVQAGGSLRLSCAAYYAMGWYRQAPGKERELVAAIDDGTSTNYADSVKGRFTISRDNAKNTVYLQMKSLKPEDTAVYYCNKLSEVTYYGSKFDYWGQGTQVTVSS”, the “polyreactivity (PSR sort gate)” value was “low polyreactivity”.
For “QVQLVESGGGLVQEGGSLRLSCAASGFTVTDYAMGLYRQAPGKERELVAAITSSGGRTYYADSVKGRFTISRDNAKNTVYLQMNSLKPEDTAGYYCTARPHGSWFEYDYWGQGTEVTVSS”, the “polyreactivity (PSR sort gate)” value was “high polyreactivity”.
For “QVQLVESGGGLVQAGGSLRLSCAASGRTFLSYAMGWSRQAPVTERELVATITRRGGSTYYADSVKGRFTISRDNAKNTVYLQMNSLKPEDTAVSYCAAYYRQYSYSEFGYWGQGTQVTVSS”, the “polyreactivity (PSR sort gate)” value was “high polyreactivity”.
In the case of “QVQLVESGGALVQAGGSLRLSCAASGRTFNYNAMGWYRQAPGKERELVAAITSGASTNYADSVKGRFTISRDNAKNTVYLQMNSLKPEDTAVYYCNAEGYVYYLQEDYWGQGTQVNVSS”, the “polyreactivity (PSR sort gate)” value is reported as “low polyreactivity”.
For “QVQLVESGGGLVQAGGSLRLSCAASGLIFDYNAMGWYRQAPGKEWELVAAISSGGSTYYADSVKGRFTISRDNANNTVYLQMNSLKPEDTAVYYCAARFSSYVRRYYYWGQGTQVTVSS”, the “polyreactivity (PSR sort gate)” value was “high polyreactivity”.
With “QVQLVESGGGLVQAGGSLRLSCAASGSIFDVNTMGWYSQAPGKERELVAGITSRGGSTYYADSVKGRFTISRDNAKNTVYLQMNSLKPEDTAVYYCAKRAYGTALYRGYGYWGQGTQVTVSS” the “polyreactivity (PSR sort gate)” value was “low polyreactivity”.
With “QDQLEESGGGLVQAGGSLRLSCAASGSTCVKYARGWYRPAPGKERELVAAISTRGGTTYYADSVKGRFTISRDNAKNTVYLQMNSLKPEDTAVYYCATGSYSRGVAYGYWGQGTQVTVSS” the “polyreactivity (PSR sort gate)” value was “high polyreactivity”.
For “KVQLVESGGGLVQAGGSHRLSSAASGSTFDGYVMGLYRPAPGKERELVDAISSTGTRTYYADSVKGRFTISRDNATNTFYLQINSMKPEDTAVYYCAAEIDYRYRTVSYYYWGQGSQVTVSS”, the “polyreactivity (PSR sort gate)” value was “low polyreactivity”.
With “QVQLVESGGGLVQAGGSLRLSCAASGSTFRSYAMGWYRQAPGKERELVARISYRTGSTYYADSVKGRFTISRDNAKNTVYLQMNSLKPEDTAVYYCATRGSYVGGLYDYWGQGTQVTVSS” the “polyreactivity (PSR sort gate)” value was “high polyreactivity”.
With “QVQLVESGGGLVQAGGSLRLSCAASGSTFGGYAMGWYRQAPGKERELVATITGGGSTNYADSVKGRFTISRDNAKNTVYLQMNSLKPEDTAVYYCAATEKYQYKVFYDPVGAYDYWGQGTQVTVSS” the “polyreactivity (PSR sort gate)” value was “low polyreactivity”.
With “QVQLVESVGGLLQAGGSLRLSCAASGSIFRGYAMGWYRQAPGKERDLVAAISWSGGSTYYADSVKGRFTISRDNAKNTVYLQMNRLKPEDTAVYYCAADRVVFGYWYYYWGQGTQVTVSS” the “polyreactivity (PSR sort gate)” value was “high polyreactivity”.
In the case of “QVQLQESGGGLVKAGGSLRLSCAASGYLILQYAMGWYRPAPGKERELVASIARGTSTYYADSVKGRFTISRDNAKNTVYLQMNSLKPEDTAVYYCAVIYSWGLWHDYWGQGTQVTVSS”, the “polyreactivity (PSR sort gate)” value is reported as “high polyreactivity”.
In the case of “QVQLVESGGGLVQAGGSLRLSCAASGNIIRKYAMGWYRPAPGKERELVAAITASGGRTFYADSVKGRFTISRDNAKNTVDLQMNSLKPEDTAVYYCATRDSPRTKNGYYYWGQGTQVTVSS”, the “polyreactivity (PSR sort gate)” value is reported as “high polyreactivity”.
With “QVQLVESGGGLVQAGGRLRLICAASGRTSRIYAMGWYRQAPGKWELVAAISGSGSRTYYADSVKGRFTISRDNAKNTVYFQMNSLKPEDTAVSYCNARYWYRHHPPEFDYWGQGTQVTVSS” the “polyreactivity (PSR sort gate)” value was “high polyreactivity”.
With “QVQLVESGGGLVQAGGSLRLSCAASGFSFYRYAMGWYRQAPAKERELVARTYYADSVKGRFTISRDNAKNTVYLQMNSLKPEDTAVYYCNKDLELEYRYEYWGQGTQVTVSS” the “polyreactivity (PSR sort gate)” value was “low polyreactivity”.
In the case of “QVQLVESGGGLVPAGGSLRLSCAASGSTFVGNAMGWYRQAPGKERELVAAISSGGSTNYADSVKGRFTISRDNAKNTVYLQMNSLKPEDTAVYYCNAVYFYWLYGFSYFATGITYDYWGQGTQVTVSS”, the “polyreactivity (PSR sort gate)” value is reported as “high polyreactivity”.
With “QVQRVESGGGLVQAGASLRLSCAASGSTFLTNAMGWYIQAPGKERELVAAITWSGTSTYADSVKGRFTISRDNAKNTVYLQMNSLKPEDTAVYYCIADGWYYPTDDYWGQGTQVTVSS” the “polyreactivity (PSR sort gate)” value was “low polyreactivity”.
With “QVQLVESGGGLVQAGGSLRLSCAASGRTFPSYTMGWYSQAPGKERELVAAITWTGGSTYYADSVKGRFTISRDNAKNTVYLQMNSLKPEDTAVYYCADYDYWGQGTQVTVSS” the “polyreactivity (PSR sort gate)” value was “low polyreactivity”.
In the case of “QVQLVESGGALVQARGSLRLSCAASGRIFGGNAMGWYRHAPGKERDLVADISYGGGSTNYADSVKGRFTISRDNAKNTVYLQMNSLKPADTAVYYCARDAWNTDGAYIGGDYDYWGQGTKVTVSS”, the “polyreactivity (PSR sort gate)” value is reported as “low polyreactivity”.
With “QVQLVESGGGLVQAGGSLRLSCAASGSIFRYYVMGWYRQAPGKERELVAAITKSAGSTYYADSVKGRFTISRDNAKNTVYLQMNSLKPEDTAVYYCAARRVSRGNSKFDYYWGQGTQVTVSS” the “polyreactivity (PSR sort gate)” value was “high polyreactivity”.
In the case of “QVQLVESGGGLVQAGGSLRLSCAASGRIFHFNAMGWYRQAPGTEKELVATITKRGGRTYYADSVKGRFTISRDNAKNTVYLQMNSLKPDDTAVYYCNADQTRYSAVSGYDYWGQGTQVTVSS”, the “polyreactivity (PSR sort gate)” value is reported as “high polyreactivity”.
For “QVQLVESGGGLVQAGGSLRLSCAASGSIFSYYAMGWYRQAPGKERELVAAISQNGGSTYYADSVKGRFTNSRDNAKNSVSFQMNRLKAEETAVYYCYAYSVYVRGEYWGQGTQVTVSS”, the “polyreactivity (PSR sort gate)” value was “high polyreactivity”.
In the case of “QVQLVESGGGLVQAGGSLRLSCAASGSTNSQYAMGWYRQAPGKERELVAAITTSDGSTNYADSVKGRFTISRDNAKNTVYLQMNSLKPEDTAVYYCNTEYFYFSFGYWGQGTQVTVSS”, the “polyreactivity (PSR sort gate)” value is reported as “low polyreactivity”.
With “QVQLVESGGGLVQAGGSLRLSCAASGFTFDGYAIGWYRQAPGKERDLVAAISGAGGSTYYADSVKGRFTISRDNAKNTVYFQMNSLKPEDTAFYYCAAEWIADLSSPVWYDYWGQGTQVTVSS” the “polyreactivity (PSR sort gate)” value was “high polyreactivity”.
With “QVQLVESGGGLVQAGGSLRLSCAASGLTFTVYTMVWYRQAPGKERELVATNSWSDGRTYYADSVKGRFTISRDNAKNTVYLQMNSVKPEDTAVYYCATESITWYYFKHEYWGQGTQVTVSS” the “polyreactivity (PSR sort gate)” value was “high polyreactivity”.
With “QVQLVESGGGLVQAGGSLRLSCAASGSTFVSNTMGWYRQAPGKERELVAAITWTGGRTYYADSVKGRFTISRDNAKNTVYLQMNSLKPEDTAVYYCAAVGTRKMYYWGQGTQVTVSS” the “polyreactivity (PSR sort gate)” value was “high polyreactivity”.
In the case of “QVQLVESRGGLVQAGGSLRLSCAASGRIFSKYAMGWYRQAPGKERELVAGITIAGRTKYADSVKGRFTISRDNAKNTVYLQMNSQKPEDTAVYYCAARAQATGGYGYWGQGTQVTVSS”, the “polyreactivity (PSR sort gate)” value is reported as “high polyreactivity”.
For “QVQLVESGGGLVQAGGSLRLSCAASGRTLFHYAMGWYRQAPGKERELVAAIRNSDGSTYYADSVKGRFTISRDNAKNSVYLQMNSLKPEDTGDYNCAAKYKYGTYNYWGQGSQVTVSS”, the “polyreactivity (PSR sort gate)” value was “high polyreactivity”.
In the case of “QVQLVESGGGLVQAGGSLRLSCAASGSIFGYYAMGWYRQAPGKERELVADITVRGGSTYYADSVNGRFTISRDNAKNTVYLQMNSLKPEDTAVYYCAKRFKYIYYWGQGTQVTVSS”, the “polyreactivity (PSR sort gate)” value is reported as “high polyreactivity”.
For “QVQLVESGGGLVQAGGSLRLSCAASGSIFSQNAMGWYRQAPGKERELVAAITSSGGNTYADSVKGRFTISRDNAKNTVYLQMNRLKPEDTAVYYCAAGHLVILNRSEYYYWGQGTQVTVSS”, the “polyreactivity (PSR sort gate)” value was “low polyreactivity”.
With “QVQLVESGGGIVQAGGSLRLSCAASGRIFSFNTMVSYRQAPRKERELVAAITSSSARTYYADSVKGRFTISRDNAKNTVYLQMNSLKPEDTAVYYCATRDWVGSVRMGYWGQGTQVTVSS” the “polyreactivity (PSR sort gate)” value was “high polyreactivity”.
With “QVQLVESGGGLVQAGGSLRLSCAASGSTLYRYAMGWYRQAPGKERELVAAISSSGGSTYYADSVKGRFTISRDNAKNTVYLQMNSLKPEDTAVYYCAAYFSTAPKSQYKLDYWGQGTQVTVSS” the “polyreactivity (PSR sort gate)” value was “high polyreactivity”.
In the case of “QDQLVESVVCLVQAGLSLRLSGASSVRIFRYYAMGWYRQAHGKERELVAAINSDGRTYYADSVKGRFTISRDNANNTVYLQMNSLKPEDTAVYYCAADHHSYRYGGYYYWGQGTQVTVAS”, the “polyreactivity (PSR sort gate)” value is reported as “low polyreactivity”.
In the case of “QVQLVESGGGLVQAGGSLRLSCAASGLILSRNTMGWYRQAPGKERELVAAITRRGGSTYYADSVKGRFTISRDNAKNTVYLQMNSLKPEDTAVYYCRLKVGTTSRWSYDYWGQGTQVTVSS”, the “polyreactivity (PSR sort gate)” value is reported as “high polyreactivity”.
For “QVQLVESGGGLVQAGGSLRLSCAASGRIFSFYAMVWSRQAPGKERELVAAISSGGYTYYADSVKGRFTISRDNAKNTVYLQMNSLKPEDTAVYYCATGYRKLSSRYGYWGQGTQVTVSS”, the “polyreactivity (PSR sort gate)” value was “high polyreactivity”.

From the nanobody polyreactivity screen of Harvey et al. (2022)
